Data taken from paper doi:10.1101/2021.01.26.428356.

Biological target: Fc-tagged receptor-binding domain (RBD) of the SARS-CoV-2 spike (S) protein (SARS-CoV-2) (UniProt P0DTC2)
Experiment: BLI; Octet Red96e; Fc-tagged RBD loaded onto the biosensor (streptavidin biosensors as printed), Fab in solution; 1x PBS pH 7.4, 0.01% w/v BSA, 0.002% v/v Tween 20; 60 s association, 60 s dissociation; 1:1 binding model

Substance | Kd
COV107-23 heavy chain paired with the light chain of COVD21-C8 (Fab) | > 1 µM
COVD21-C8 heavy chain paired with the light chain of COV107-23 (Fab) | > 1 µM
